Laboratory results reported in patent publication US20250026792A1, “SELF-ASSEMBLING PEPTIDES WITH HYALURONIC ACID BINDING DOMAINS AND METHODS OF USE THEREOF” (Northwestern University, priority 2022, published 2025).
Entries after “also recorded” stand apart in the source; their conditions may differ. Where a SMILES comes first, the peptide text is derived from it. The star is where a group is joined. Biotin = O=C1N[C@H]2[C@H](CS[C@H]2CCCCC(=O)*)N1

T1: elastin (bovine) (bovine, UniProt P04985 27-747, limits assumed)
T1 construct: Coated and dried on plates at 10 ug/cm2
T1 sequence (looked up): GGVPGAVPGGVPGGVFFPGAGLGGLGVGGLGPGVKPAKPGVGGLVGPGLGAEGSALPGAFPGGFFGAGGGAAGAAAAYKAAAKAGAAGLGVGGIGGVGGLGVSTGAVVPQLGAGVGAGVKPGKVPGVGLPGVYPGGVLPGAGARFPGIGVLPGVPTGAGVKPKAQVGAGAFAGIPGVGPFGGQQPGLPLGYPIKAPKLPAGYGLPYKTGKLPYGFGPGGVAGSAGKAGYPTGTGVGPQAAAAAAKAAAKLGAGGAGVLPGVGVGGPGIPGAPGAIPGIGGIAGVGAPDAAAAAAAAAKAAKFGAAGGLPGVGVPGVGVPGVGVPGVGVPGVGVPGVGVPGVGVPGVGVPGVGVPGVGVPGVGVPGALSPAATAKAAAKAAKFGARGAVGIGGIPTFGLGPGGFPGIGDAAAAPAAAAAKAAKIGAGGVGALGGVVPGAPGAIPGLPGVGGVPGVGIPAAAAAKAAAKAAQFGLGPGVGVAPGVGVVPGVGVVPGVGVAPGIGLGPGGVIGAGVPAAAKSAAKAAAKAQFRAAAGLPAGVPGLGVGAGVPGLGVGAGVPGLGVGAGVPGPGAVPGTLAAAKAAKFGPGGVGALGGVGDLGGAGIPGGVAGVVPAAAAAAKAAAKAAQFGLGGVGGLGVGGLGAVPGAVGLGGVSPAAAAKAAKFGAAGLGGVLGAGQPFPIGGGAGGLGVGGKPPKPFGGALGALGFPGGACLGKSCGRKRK


What was measured:
[1] = Transmission electron microscopy (TEM) of peptide nanostructures; type: physicochemical; conditions: for TEM characterization, Sodium Cacodylate Buffer (ii): 20 mM sodium cacodylate pH 7.4, 0.5% w/v; for TEM characterization, Sodium Cacodylate Buffer (ii) / TEM characterization, Phosphate Buffered Saline (i): 30 minutes sonication, 24 hrs at 37° C.; for TEM characterization, Phosphate Buffered Saline (i): PBS pH 7.4, 0.5% w/v
Experimental: The sample and stain were filter-dried in between steps. Samples were collected 24 hours at 37° C. after 30 minutes of sonication. All TEM was performed on a Philips FEI Technai Spirit G2 electron microscope. Peptides were incubated in both PBS and SC.

[2] = Circular dichroism (CD) of peptides; type: physicochemical; conditions: 20 mM Sodium Cacodylate; for Ellipticity ratio (222 nm/208 nm) / Ellipticity 208 nm / Ellipticity 222 nm: 1.25 mg/mL; for Ellipticity 208 nm / Ellipticity 222 nm: CD data given as [θ]M×10^−3; for wavelength Minimum of CD profile: 5.0 mg/mL
Experimental: Data is presented in ellipticity ([θ]M×10^−3) as a function of spectral wavelength (λ).
Sodium cacodylate (SC), 20 mM pH 7.4, without and with 20% TFE was used to reduce phosphate related background signal and enhance detected structures. Circular dichroism (CD) data were collected in millidegrees, 0, and converted to molar ellipticity, [θ]M, and are expressed in units of deg×cm^2×dmol^−1. Scan speeds and digital integration times were 500 nm/min and 1 second, respectively. The data on the Y axis of the CD plots is [θ]M×10^−3. […] Consequently, CD signals are reported in the 190-260 nm range.

[3] = Concentration-dependent peptide binding to hyaluronic acid coating (biotin-streptavidin fluorescence); conditions: for binding to hyaluronic acid with increasing concentrations of peptide (fluorescence intensity): 0-10 mg/ml peptide, PBS pH 7.4, 37° C., HA coating 10 μg/cm^2, FIG. 3; for HA binding, overall assessment: summary and discussion statements
Experimental: (§1) Peptides were incubated 24 hours at 37° C. Coatings (10 μg/cm^2) were previously dried overnight in milli-Q water. Overall significance was assessed using analysis of variance, with Tukey's multiple comparison post-hoc analysis between 1-scrm and experimental groups where n=4.
N-termini biotinylated peptides were added to coated plates at 0, 1, 2.5, 5 and 10 mg/ml overnight at 37° C. in phosphate buffered saline (PBS), pH 7.4, after which the plates were washed three times with PBS.

[4] = system: extracellular matrix (ECM) components: Collagen type I, II, III and IV, elastin, hyaluronic acid and Geltrex; assay: ECM specificity binding test, whole panel; conditions: 5.0 mg/ml peptide, FIG. 4
Experimental: as §1, with “C. on collagens I-IV, elastin, hyaluronic acid, and Geltrex.” for “C.”, “pig/cm^2)” for “μg/cm^2)”, “ECM” for “1-scrm and experimental”
(§2) Hyaluronic acid, collagens I, II, III, and IV, elastin, and Geltrex were coated onto 96-well black plates (medium binding affinity) at 10 μg/cm^2 and were dried in milli-Q water at room temperature. N-termini biotinylated peptides were added to coated plates at 0, 1, 2.5, 5 and 10 mg/ml overnight at 37° C. in phosphate buffered saline (PBS), pH 7.4, after which the plates were washed three times with PBS. Fluorescent streptavidin-488 (4 μg/mL) was added to each well and incubated at 37° C. temperature for 24 hours, then thoroughly washed with PBS. The plates were read with a fluorescence microplate reader for fluorescence intensity (Ex 490 nm, Em 525 nm). All data were normalized to the background fluorescence intensity of Streptavidin-488.

elastin (bovine) = molecular target: T1, elastin (bovine); assay: plate assay: biotinylated peptide (5.0 mg/ml) on dried ECM coating, streptavidin-488 fluorescence
Experimental: as §1, with “C. on collagens I-IV, elastin, hyaluronic acid, and Geltrex.” for “C.”, “pig/cm²)” for “μg/cm^2)”, “ECM” for “1-scrm and experimental”
as §2, with “N-termini” for “Hyaluronic acid, collagens I, II, III, and IV, elastin, and Geltrex were coated onto 96-well black plates (medium binding affinity) at 10 μg/cm^2 and were dried in milli-Q water at room temperature. N-termini”

Row | binding to the ECMs (for 17x-3: the ECMs other than hyaluronic acid) [4] | binding to hyaluronic acid ([3]; 10 mg/ml peptide) | peptide concentrations at which increased binding to hyaluronic acid is shown ([3]; FIG. 3) [mg/mL] | binding result (elastin (bovine)) | Molecule | TEM characterization, Sodium Cacodylate Buffer (ii) [1] | TEM characterization, Phosphate Buffered Saline (i) [1] | Ellipticity ratio (222 nm/208 nm) [2] | Ellipticity 208 nm [2] | Ellipticity 222 nm [2] | wavelength Minimum of CD profile [2] | Ellipticity ratio (222 nm/208 nm) ([2]; 20% TFE) | Ellipticity 208 nm ([2]; 20% TFE) | Ellipticity 222 nm ([2]; 20% TFE) | wavelength Minimum of CD profile ([2]; 20% TFE) | binding to hyaluronic acid with increasing concentrations of peptide (fluorescence intensity) [3] | HA binding, overall assessment [3] | nanofiber formation in TEM, overall ([1]; both PBS and sodium cacodylate)
1 |  |  |  |  | CC[C@H](C)[C@H](NC(=O)[C@H](CC(C)C)NC(=O)[C@H](CC(N)=O)NC(=O)[C@H](CC(C)C)NC(=O)[C@H](CCC(N)=O)NC(=O)[C@H](CC(C)C)NC(=O)[C@H](CCC(N)=O)NC(=O)[C@H](CC(C)C)NC(=O)[C@H](CCCCN)NC(=O)[C@H](CCCCN)NC(=O)[C@H](CCCCN)NC(=O)[C@H](CCCCN)NC(=O)[C@H](CCCCN)NC(=O)CCCC[C@@H]1SC[C@@H]2NC(=O)N[C@@H]21)C(=O)N[C@@H](CCCCN)C(=O)N[C@@H](CCCCN)C(=O)N[C@@H](CCCCN)C(=O)N[C@H](C(=O)N[C@@H](CCC(N)=O)C(=O)N[C@H](C(=O)N[C@@H](CO)C(=O)N[C@H](C(=O)N[C@H](C(=O)N[C@H](C(=O)N[C@H](C(=O)N[C@@H](CCCNC(=N)N)C(=O)N[C@@H](CCCNC(=N)N)C(=O)N[C@@H](Cc1c[nH]cn1)C(=O)O)C(C)C)C(C)C)C(C)C)C(C)C)C(C)C)C(C)C [Peptide 1-scrm, reference compound] (Biotin-KKKKKLQLQLNLIKKKVQVSVVVVRRH-OH) | No structure or fibrils |  |  |  |  |  |  |  |  |  |  |  | 
2 |  |  |  |  | CC[C@H](C)[C@H](NC(=O)[C@H](CCCCN)NC(=O)[C@H](CCC(N)=O)NC(=O)[C@H](CCCCN)NC(=O)[C@H](CC(C)C)NC(=O)CCCC[C@@H]1SC[C@@H]2NC(=O)N[C@@H]21)C(=O)N[C@@H](CCCCN)C(=O)N[C@@H](Cc1c[nH]cn1)C(=O)N[C@H](C(=O)N[C@H](C(=O)N[C@@H](CCCCN)C(=O)N[C@@H](CC(C)C)C(=O)N[C@@H](CCCCN)C(=O)N[C@H](C(=O)N[C@H](C(=O)N[C@H](C(=O)N[C@@H](CCCCN)C(=O)N[C@@H](CC(C)C)C(=O)N[C@@H](CCCNC(=N)N)C(=O)N[C@@H](CO)C(=O)N[C@@H](CCC(N)=O)C(=O)N[C@@H](CC(C)C)C(=O)N[C@H](C(=O)N[C@@H](CCCCN)C(=O)N[C@@H](CCCNC(=N)N)C(=O)N[C@@H](CCCCN)C(=O)N[C@@H](CCC(N)=O)C(=O)N[C@@H](CC(N)=O)C(=O)O)C(C)C)C(C)C)C(C)C)C(C)C)C(C)C)C(C)C [mPEP35, reference compound] (Biotin-LKQKIKHVVKLKVVVKLRSQLVKRKQN-OH) | no fibers or structure can be observed; also recorded: No structure or fibrils |  |  |  |  |  |  |  |  |  |  |  | 
3 |  |  |  |  | ASNLTKAAKSLKVRVIKKTKQKQVLKVL [2nd de novo, five B(X7)B domains] |  | Structure, but no discernible striations | 0.42 | −115 | −48.5 | 224-225 nm | 0.90 | −371 | −333 | 221-222 nm |  |  | 
4 |  |  |  |  | LKLKSSHSIKLKVKSKQRSALVSRQKA [Peptide 6b, mPEP35 variant] |  | Structure with striations |  |  |  | 227 nm | 0.87 | −229 | −199 | 224 nm |  |  | 
5 |  |  |  |  | TKSKIKIVVKSKAKKLRLALVKRIKI [Peptide 6f-2, modification of mPEP35] |  | Structure, but no discernible striations | 0.52 | −97.6 | −50.6 | 221 nm | 0.84 | −306 | −257 | 221 nm | no different than the negative reference peptide |  | 
6 |  |  |  |  | TKTKIKIIVKLKSKAKLRIKLVKRHKS [Peptide 8h-2, modification of mPEP35] | No discernible structure. | No discernible structure. | 0.42 | −135 | −57.3 | 224 nm | 0.88 | −283 | −249 | 222-224 nm |  | proficient and specific binders | 
7 | did not show significant binding | bound significantly | 10 |  | TQLRNKYTFLARARNALAVRTKQNIKS [BHP3, designed from 42 residue peptide BH-P] |  | form fibers with many striations that form larger fibers and the larger fibers tend to form a mesh network | 0.79 | −88.4 | −70.1 | 226 nm |  |  |  | 226 nm | increases dramatically | HA specific and robust binders | consistent nanofibers; also recorded: predominantly form fibers with striations and furthermore form a mesh network
8 |  |  |  | binds | Biotin-LKTKIKIIVKTKSSAKLRSKLVNSHKI-OH (SMILES CC[C@H](C)[C@H](NC(=O)[C@H](CCCCN)NC(=O)[C@H](Cc1c[nH]cn1)NC(=O)[C@H](CO)NC(=O)[C@H](CC(N)=O)NC(=O)[C@@H](NC(=O)[C@H](CC(C)C)NC(=O)[C@H](CCCCN)NC(=O)[C@H](CO)NC(=O)[C@H](CCCNC(=N)N)NC(=O)[C@H](CC(C)C)NC(=O)[C@H](CCCCN)NC(=O)[C@H](C)NC(=O)[C@H](CO)NC(=O)[C@H](CO)NC(=O)[C@H](CCCCN)NC(=O)[C@@H](NC(=O)[C@H](CCCCN)NC(=O)[C@@H](NC(=O)[C@@H](NC(=O)[C@@H](NC(=O)[C@H](CCCCN)NC(=O)[C@@H](NC(=O)[C@H](CCCCN)NC(=O)[C@@H](NC(=O)[C@H](CCCCN)NC(=O)[C@H](CC(C)C)NC(=O)CCCC[C@@H]1SC[C@@H]2NC(=O)N[C@@H]21)[C@@H](C)O)[C@@H](C)CC)[C@@H](C)CC)[C@@H](C)CC)C(C)C)[C@@H](C)O)C(C)C)C(=O)O, Variant of peptide 8h-2; biotinylated synthetic peptide) [Peptide 4] |  |  |  |  |  |  |  |  |  |  |  |  | 
